# Results published in patent publication US20070021348.
# B1: Asp 2 (transiently expressed from pcDNA3.1aMycHis) (protein)
# chain: ETDEEPEEPGRRGSFVEMVDNLRGKSGQGYYVEMTVGSPPQTLNILVDTGSSNFAVGAAPHPFLHRYYQRQLSSTYRDLRKGVYVPYTQGKWEGELGTDLVSIPHGPNVTVRANIAAITESDKFFINGSNWEGILGLAYAEIARPDDSLEPFFDSLVKQTHVPNLFSLQLCGAGFPLNQSEVLASVGGSMIIGGIDHSLYTGSLWYTPIRREWYYEVIIVRVEINGQDLKMDCKEYNYDKSIVDSGTTNLRLPKKVFEAAVKSIKAASSTEKFPDGFWLGEQLVCWQAGTTPWNIFPVISLYLMGEVTNQSFRITILPQQYLRPVEDVATSQDDCYKFAISQSSTGTVMGAVIMEGFYVVFDRARKRIGFAVSACHVHDEFRTAAVEGPFVTLDMEDCGYNIPQTDESTLMTIAYVMAAICALFMLPLCLMVCQWRCLRCLRQQHDDFADDISLLK
# B2: Asp 2 active site mutant D93N (protein)
# chain: ETDEEPEEPGRRGSFVEMVDNLRGKSGQGYYVEMTVGSPPQTLNILVNTGSSNFAVGAAPHPFLHRYYQRQLSSTYRDLRKGVYVPYTQGKWEGELGTDLVSIPHGPNVTVRANIAAITESDKFFINGSNWEGILGLAYAEIARPDDSLEPFFDSLVKQTHVPNLFSLQLCGAGFPLNQSEVLASVGGSMIIGGIDHSLYTGSLWYTPIRREWYYEVIIVRVEINGQDLKMDCKEYNYDKSIVDSGTTNLRLPKKVFEAAVKSIKAASSTEKFPDGFWLGEQLVCWQAGTTPWNIFPVISLYLMGEVTNQSFRITILPQQYLRPVEDVATSQDDCYKFAISQSSTGTVMGAVIMEGFYVVFDRARKRIGFAVSACHVHDEFRTAAVEGPFVTLDMEDCGYNIPQTDESTLMTIAYVMAAICALFMLPLCLMVCQWRCLRCLRQQHDDFADDISLLK
# B3: Asp 2 active site mutant D289N (protein)
# chain: ETDEEPEEPGRRGSFVEMVDNLRGKSGQGYYVEMTVGSPPQTLNILVDTGSSNFAVGAAPHPFLHRYYQRQLSSTYRDLRKGVYVPYTQGKWEGELGTDLVSIPHGPNVTVRANIAAITESDKFFINGSNWEGILGLAYAEIARPDDSLEPFFDSLVKQTHVPNLFSLQLCGAGFPLNQSEVLASVGGSMIIGGIDHSLYTGSLWYTPIRREWYYEVIIVRVEINGQDLKMDCKEYNYDKSIVNSGTTNLRLPKKVFEAAVKSIKAASSTEKFPDGFWLGEQLVCWQAGTTPWNIFPVISLYLMGEVTNQSFRITILPQQYLRPVEDVATSQDDCYKFAISQSSTGTVMGAVIMEGFYVVFDRARKRIGFAVSACHVHDEFRTAAVEGPFVTLDMEDCGYNIPQTDESTLMTIAYVMAAICALFMLPLCLMVCQWRCLRCLRQQHDDFADDISLLK
# Target: human APP isoform 695 (in SH-SY5Y APP695 cells), P05067
# Sequence (P05067 whole entry, looked up, canonical isoform): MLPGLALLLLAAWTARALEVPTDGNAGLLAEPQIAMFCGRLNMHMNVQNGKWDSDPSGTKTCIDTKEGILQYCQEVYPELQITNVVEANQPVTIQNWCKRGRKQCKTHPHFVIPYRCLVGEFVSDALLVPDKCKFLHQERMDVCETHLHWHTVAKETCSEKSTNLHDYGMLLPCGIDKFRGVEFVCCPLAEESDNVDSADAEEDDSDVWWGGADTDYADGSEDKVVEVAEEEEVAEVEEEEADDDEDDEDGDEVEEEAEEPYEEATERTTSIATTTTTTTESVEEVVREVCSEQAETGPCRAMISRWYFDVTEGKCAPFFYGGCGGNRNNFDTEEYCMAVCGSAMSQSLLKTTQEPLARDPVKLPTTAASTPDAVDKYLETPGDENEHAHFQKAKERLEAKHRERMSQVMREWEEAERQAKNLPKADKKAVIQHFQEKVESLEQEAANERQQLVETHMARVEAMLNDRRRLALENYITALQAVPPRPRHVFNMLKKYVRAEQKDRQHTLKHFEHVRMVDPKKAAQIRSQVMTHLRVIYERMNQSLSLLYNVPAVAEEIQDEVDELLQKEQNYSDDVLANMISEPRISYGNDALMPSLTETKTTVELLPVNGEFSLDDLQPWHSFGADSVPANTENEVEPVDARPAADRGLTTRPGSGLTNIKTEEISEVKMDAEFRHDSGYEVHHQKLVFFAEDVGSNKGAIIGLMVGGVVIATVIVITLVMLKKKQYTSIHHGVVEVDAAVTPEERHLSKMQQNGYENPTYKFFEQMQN
Protein,"sAPPβ (110 kDa) in media, Western blot","sAPPβ in media, Western blot"
B1,An increase in sAPPβ (110 kDa) was observed in the media from Asp 2 transfected cells compared to empty vector pcDNA3.1MycHis transfected control cells,
B2,,There was no increase in sAPPβ secreted from cells transfected with either of the Asp-Asn mutants D93N or D289N
B3,,There was no increase in sAPPβ secreted from cells transfected with either of the Asp-Asn mutants D93N or D289N
